Earlier results on 1 substance are cited in paper PMC8553002 (Journal of Mass Spectrometry and Advances in the Clinical …, 2020).

The conditions of this data set: insulin degraded by the liver, to a minor extent, kidneys.

The half-life is the time needed for the level to fall by half in the phase considered. Take “Insulin: hormone released with C-peptide from proinsulin in equimolar amounts”: the half-life was 3 to 5 min.
